Experimental data: patent publication US20120321699A1

Legend:
Scl 70 autoantigen [1] = test: Athena assay, mAb 12.5 ug/ml; positive >50
centromere B autoantigen [2] = test: Athena assay, mAb 12.5 ug/ml; positive >50
SSA autoantigen [3] = test: Athena assay, mAb 12.5 ug/ml; positive >50
SSB autoantigen [4] = test: Athena assay, mAb 12.5 ug/ml; positive >50
RNP autoantigen [5] = test: Athena assay, mAb 12.5 ug/ml; positive >50
Sm autoantigen [6] = test: Athena assay, mAb 12.5 ug/ml; positive >50
Histone autoantigen [7] = test: Athena assay, mAb 12.5 ug/ml; positive >50
Jo 1 autoantigen [8] = test: Athena assay, mAb 12.5 ug/ml; positive >50
[9] = molecular target: Influenza HA (Wisconsin) (influenza virus); test: Luminex assay, antibody 50 µg/ml
HCV E2 (HCV) = test: Luminex assay, antibody 50 µg/ml
Scl 70 autoantigen [10] = test: Athena assay, mAb 25 ug/ml; positive >50
centromere B autoantigen [11] = test: Athena assay, mAb 25 ug/ml; positive >50
SSA autoantigen [12] = test: Athena assay, mAb 25 ug/ml; positive >50
SSB autoantigen [13] = test: Athena assay, mAb 25 ug/ml; positive >50
RNP autoantigen [14] = test: Athena assay, mAb 25 ug/ml; positive >50
Sm autoantigen [15] = test: Athena assay, mAb 25 ug/ml; positive >50
Histone autoantigen [16] = test: Athena assay, mAb 25 ug/ml; positive >50
Jo 1 autoantigen [17] = test: Athena assay, mAb 25 ug/ml; positive >50
Scl 70 autoantigen [18] = test: Athena assay, mAb 6.25 ug/ml; positive >50
centromere B autoantigen [19] = test: Athena assay, mAb 6.25 ug/ml; positive >50
SSA autoantigen [20] = test: Athena assay, mAb 6.25 ug/ml; positive >50
SSB autoantigen [21] = test: Athena assay, mAb 6.25 ug/ml; positive >50
RNP autoantigen [22] = test: Athena assay, mAb 6.25 ug/ml; positive >50
Sm autoantigen [23] = test: Athena assay, mAb 6.25 ug/ml; positive >50
Histone autoantigen [24] = test: Athena assay, mAb 6.25 ug/ml; positive >50
Jo 1 autoantigen [25] = test: Athena assay, mAb 6.25 ug/ml; positive >50
Scl 70 autoantigen [26] = test: Athena assay, mAb 50 ug/ml; positive >50
centromere B autoantigen [27] = test: Athena assay, mAb 50 ug/ml; positive >50
SSA autoantigen [28] = test: Athena assay, mAb 50 ug/ml; positive >50
SSB autoantigen [29] = test: Athena assay, mAb 50 ug/ml; positive >50
RNP autoantigen [30] = test: Athena assay, mAb 50 ug/ml; positive >50
Sm autoantigen [31] = test: Athena assay, mAb 50 ug/ml; positive >50
Histone autoantigen [32] = test: Athena assay, mAb 50 ug/ml; positive >50
Jo 1 autoantigen [33] = test: Athena assay, mAb 50 ug/ml; positive >50
A244 gD- gp120 (HIV-1) = test: SPR
[34] = molecular target: A244gD+ gp120 (herpes simplex virus; HIV-1); test: SPR
Sequence of A244gD+ gp120 (herpes simplex virus; HIV-1) (Q69091 26-52): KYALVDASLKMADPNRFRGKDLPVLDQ

[35] = molecular target: HV00044 (6240 TZ5 140C) (HIV-1); test: SPR

Row | Substance | Autoreactivity (Athena) (Scl 70 autoantigen [1]) | Autoreactivity (Athena) (centromere B autoantigen [2]) | Autoreactivity (Athena) (SSA autoantigen [3]) | Autoreactivity (Athena) (SSB autoantigen [4]) | Autoreactivity (Athena) (RNP autoantigen [5]) | Autoreactivity (Athena) (Sm autoantigen [6]) | Autoreactivity (Athena) (Histone autoantigen [7]) | Autoreactivity (Athena) (Jo 1 autoantigen [8]) | background substracted RFUs [9] | background substracted RFUs (HCV E2 (HCV)) | Autoreactivity (Athena) (Scl 70 autoantigen [10]) | Autoreactivity (Athena) (centromere B autoantigen [11]) | Autoreactivity (Athena) (SSA autoantigen [12]) | Autoreactivity (Athena) (SSB autoantigen [13]) | Autoreactivity (Athena) (RNP autoantigen [14]) | Autoreactivity (Athena) (Sm autoantigen [15]) | Autoreactivity (Athena) (Histone autoantigen [16]) | Autoreactivity (Athena) (Jo 1 autoantigen [17]) | Autoreactivity (Athena) (Scl 70 autoantigen [18]) | Autoreactivity (Athena) (centromere B autoantigen [19]) | further results
1 | 4E10 (antibody) | 3 | 13 | 169 | 124 | 9 | 5 | 160 | 87 | 0 RFU | 89.2 RFU | 4 | 19 | 247 | 206 | 15 | 7 | 274 | 138 | 2 | 9 | Autoreactivity (Athena) (SSA autoantigen [20]): 115; Autoreactivity (Athena) (SSB autoantigen [21]): 93; Autoreactivity (Athena) (RNP autoantigen [22]): 6; Autoreactivity (Athena) (Sm autoantigen [23]): 4; Autoreactivity (Athena) (Histone autoantigen [24]): 113; Autoreactivity (Athena) (Jo 1 autoantigen [25]): 65; Autoreactivity (Athena) (Scl 70 autoantigen [26]): 3; Autoreactivity (Athena) (centromere B autoantigen [27]): 31; Autoreactivity (Athena) (SSA autoantigen [28]): 306; Autoreactivity (Athena) (SSB autoantigen [29]): 254; Autoreactivity (Athena) (RNP autoantigen [30]): 20; Autoreactivity (Athena) (Sm autoantigen [31]): 9; Autoreactivity (Athena) (Histone autoantigen [32]): 333; Autoreactivity (Athena) (Jo 1 autoantigen [33]): 156
2 | CH05 (antibody) | 1.5 | 6.5 | 8 | 5 | 3.5 | 3.5 | 11 | 2.5 | 5.5 RFU | 1.3 RFU | 1.5 | 9 | 12.5 | 5.5 | 4.5 | 3 | 14 | 3.5 | 1.5 | 6 | Autoreactivity (Athena) (SSA autoantigen [20]): 7; Autoreactivity (Athena) (SSB autoantigen [21]): 6; Autoreactivity (Athena) (RNP autoantigen [22]): 3; Autoreactivity (Athena) (Sm autoantigen [23]): 2.5; Autoreactivity (Athena) (Histone autoantigen [24]): 10; Autoreactivity (Athena) (Jo 1 autoantigen [25]): 2.5; Autoreactivity (Athena) (Scl 70 autoantigen [26]): 2; Autoreactivity (Athena) (centromere B autoantigen [27]): 14.5; Autoreactivity (Athena) (SSA autoantigen [28]): 27; Autoreactivity (Athena) (SSB autoantigen [29]): 13; Autoreactivity (Athena) (RNP autoantigen [30]): 9; Autoreactivity (Athena) (Sm autoantigen [31]): 2.5; Autoreactivity (Athena) (Histone autoantigen [32]): 21.5; Autoreactivity (Athena) (Jo 1 autoantigen [33]): 9; Kd (A244 gD- gp120 (HIV-1)): 340 nM; Kd [34]: 26.1 nM; Kd [35]: 1450 nM
3 | CH03 (antibody) | 8 | 30 | 6 | 6 | 74 | 9 | 359 | 4 | 1 RFU | 2910 RFU | 7 | 34 | 6 | 4 | 70 | 10 | 386 | 4 | 4 | 19 | Autoreactivity (Athena) (SSA autoantigen [20]): 5; Autoreactivity (Athena) (SSB autoantigen [21]): 5; Autoreactivity (Athena) (RNP autoantigen [22]): 51; Autoreactivity (Athena) (Sm autoantigen [23]): 7; Autoreactivity (Athena) (Histone autoantigen [24]): 231; Autoreactivity (Athena) (Jo 1 autoantigen [25]): 3; Autoreactivity (Athena) (Scl 70 autoantigen [26]): 12; Autoreactivity (Athena) (centromere B autoantigen [27]): 98; Autoreactivity (Athena) (SSA autoantigen [28]): 9; Autoreactivity (Athena) (SSB autoantigen [29]): 7; Autoreactivity (Athena) (RNP autoantigen [30]): 132; Autoreactivity (Athena) (Sm autoantigen [31]): 24; Autoreactivity (Athena) (Histone autoantigen [32]): 844; Autoreactivity (Athena) (Jo 1 autoantigen [33]): 5; Kd (A244 gD- gp120 (HIV-1)): 728 nM; Kd [34]: 15.6 nM; Kd [35]: 1060 nM
4 | CH04 (antibody) | 2 | 8 | 7 | 4.5 | 4 | 2.5 | 11 | 2.5 | 2.5 RFU | 0.5 RFU | 2 | 13 | 11 | 8 | 6 | 2 | 16 | 3 | 1.5 | 6.5 | Autoreactivity (Athena) (SSA autoantigen [20]): 6; Autoreactivity (Athena) (SSB autoantigen [21]): 6; Autoreactivity (Athena) (RNP autoantigen [22]): 3; Autoreactivity (Athena) (Sm autoantigen [23]): 3; Autoreactivity (Athena) (Histone autoantigen [24]): 9.5; Autoreactivity (Athena) (Jo 1 autoantigen [25]): 2; Autoreactivity (Athena) (Scl 70 autoantigen [26]): 3; Autoreactivity (Athena) (centromere B autoantigen [27]): 18; Autoreactivity (Athena) (SSA autoantigen [28]): 19; Autoreactivity (Athena) (SSB autoantigen [29]): 11; Autoreactivity (Athena) (RNP autoantigen [30]): 9; Autoreactivity (Athena) (Sm autoantigen [31]): 3; Autoreactivity (Athena) (Histone autoantigen [32]): 26; Autoreactivity (Athena) (Jo 1 autoantigen [33]): 5; Kd (A244 gD- gp120 (HIV-1)): 410 nM; Kd [34]: 25.5 nM; Kd [35]: 360 nM
5 | CH02 (antibody) | 1.5 | 7 | 5 | 3.5 | 6 | 2.5 | 8.5 | 1 | 0.3 RFU | 333 RFU | 2 | 9.5 | 6 | 4.5 | 9 | 3 | 11.5 | 1.5 | 2 | 6 | Autoreactivity (Athena) (SSA autoantigen [20]): 5; Autoreactivity (Athena) (SSB autoantigen [21]): 5; Autoreactivity (Athena) (RNP autoantigen [22]): 5; Autoreactivity (Athena) (Sm autoantigen [23]): 2.5; Autoreactivity (Athena) (Histone autoantigen [24]): 7; Autoreactivity (Athena) (Jo 1 autoantigen [25]): 1.5; Autoreactivity (Athena) (Scl 70 autoantigen [26]): 2.5; Autoreactivity (Athena) (centromere B autoantigen [27]): 12.5; Autoreactivity (Athena) (SSA autoantigen [28]): 5.5; Autoreactivity (Athena) (SSB autoantigen [29]): 4.5; Autoreactivity (Athena) (RNP autoantigen [30]): 12.5; Autoreactivity (Athena) (Sm autoantigen [31]): 3.5; Autoreactivity (Athena) (Histone autoantigen [32]): 15.5; Autoreactivity (Athena) (Jo 1 autoantigen [33]): 2; Kd [34]: 450 nM
6 | Synagis (anti-RSV control mAb) (antibody) | – | – | – | – | – | – | – | – | 1 RFU | 0.5 RFU | – | – | – | – | – | – | – | – | – | – | –
